Here are results for 2 molecules from patent US20100104577A1 (published 2010).

One assay concerns the target T1, Aβ1-40 (human, UniProt P05067 672-711).
T1 construct: domain: Aβ1-40; Used as a soluble peptide (ELISA), as fibrils (fAβ40 pulldown) and as expressed in TgBRI-Aβ40, Tg2576 and CRND8 mice (plasma complexes); also called Aβ40; human Aβ40
The assay is described as follows: pulldown of conditioned media of transfected 293T cells with fibrillar Aβ40, western blot with anti-His. The protocol:
(§1) Fibrillar Aβ pulldown assays. One mL of conditioned media from 293T HEK cells transiently transfected with pSecTag palsmids encoding the anti-Aβ scFv was incubated with 10 μg of fibrillar Aβ40 or Aβ42 (fAβ) at 4° C. for 1 hour. The fibrils were then spun down and resuspended in SDS-PAGE loading buffer. The presence of scFv was determined by western blot with rabbit anti-His (Bethyl). To determine the Aβ40 binding properties of scFv secreted into the media, capture ELISA was used with Aβ40 peptide as capture and anti-myc-HRP, 1:2000, as detection.
(§2) Prior to testing the effects of the scFv in vivo, the anti-Aβ scFvs expressed from 293T cells were characterized.
Background: In western blotting, separated proteins are transferred to a membrane and probed.

In another assay the target is T2, Aβ1-42 (human, UniProt P05067 672-713).
T2 construct: domain: Aβ1-42; also called Aβ42; fAβ42 (fibrillar form in the pulldown)
The assay is described as follows: pulldown of conditioned media of transfected 293T cells with fibrillar Aβ42, western blot with anti-His. The protocol:
as §1, §2

T1 sequence (P05067 672-711 limits assumed): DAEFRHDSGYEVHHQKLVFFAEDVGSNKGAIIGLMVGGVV
T2 sequence (P05067 672-713 limits assumed): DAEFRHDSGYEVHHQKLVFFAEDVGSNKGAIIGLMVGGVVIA

B1: scFv42.2 (scFv)
scFv: EVQLQQSGPELVKPGASGKISCKTSGYTFSENTMHWVKQSHGKSLEWIGGINPNTGATYYNQKFKGKATLTVDTSSSTAYLELRSLTSADSAVYYCVRNGLLTLGAMDYWGQGTSVTVSSGGGGSGGGGSGGGGSDVVMTQTPLSLPVSLGDQASISCRSSQSLVHSNGNTYLYWCLQKPGQSPKLLIYKVSSRFSGVPDRFSGSGSGTDFTLKISRVEAEDLGVYFCSQSTHAPLTFGAGTKLELKR
notes: VH-linker-VL from mAb42.2; secreted from 293T HEK cells (pSecTag), detected by anti-His and anti-myc; Tested as conditioned medium; also called anti-Aβ42 specific scFv42.2
Take B1: the binding result was “no binding” with Aβ1-40 and “binds” with Aβ1-42.

B2: scFv40.1 (scFv)
scFv: EVQLQQSGADLVKPGASVKLSCTASGFNIKATYMHWVRQRPEQGLEWIGRIDPANGDTKYDPKFQGKATLTVDTSSNTAYLQLSSLTSEDTAVYYCSTLYYREAYWGQGTLVTVSAGGGGSGGGSGGGGSDVVMTQTPLTLSVTIGQPASISCKSSQRLIYSDGKTYLNWLLQRPGQSPKRLIYLVSKLDSGVPDRFTGSGSGTDFTLKISRVEAEDLGVYYCWQGTHFPVTFGAGTKLELKR
notes: VH-linker-VL from mAb40.1; secreted from 293T HEK cells (pSecTag), detected by anti-His and anti-myc; Tested as conditioned medium
Take B2: in the assay with Aβ1-40, the binding result is “binds”.
